Reference: patent publication US20070059320A1 (HOSPITAL FOR SICK CHILDREN, published 2007)
Each block holds one binder with its values, some of them ahead of it. Ends that are not written are not given here.

How the values were obtained:
[1] = biological target: T1, recombinant Src unique domain (biotinylated probe) (murine (n-Src), UniProt P12931 5-83 (human entry), biotinylated); experiment: blot of ND2-GST fusion proteins probed with biotinylated Src unique domain, streptavidin-HRP
T1 construct: also called unique domain of Src; Src unique domain protein; not shown: GST tag of vector pGEX2T'6; purified as GST fusion protein

[2] = biological target: non-receptor tyrosine kinase Src, native protein in brain lysates, PSD preparations, hippocampal neurons and … (rat, UniProt Q9WUD9 2-536, limits assumed); experiment: GST pull-down from PSD preparations, immunoblot
[3] = biological target: T2, potassium channel Kv3.1, native protein in PSD preparations (rat, UniProt P25122 1-585); experiment: co-immunoprecipitation from PSD preparations with anti-Kv3.1, probed with anti-ND2
T2 sequence (looked up): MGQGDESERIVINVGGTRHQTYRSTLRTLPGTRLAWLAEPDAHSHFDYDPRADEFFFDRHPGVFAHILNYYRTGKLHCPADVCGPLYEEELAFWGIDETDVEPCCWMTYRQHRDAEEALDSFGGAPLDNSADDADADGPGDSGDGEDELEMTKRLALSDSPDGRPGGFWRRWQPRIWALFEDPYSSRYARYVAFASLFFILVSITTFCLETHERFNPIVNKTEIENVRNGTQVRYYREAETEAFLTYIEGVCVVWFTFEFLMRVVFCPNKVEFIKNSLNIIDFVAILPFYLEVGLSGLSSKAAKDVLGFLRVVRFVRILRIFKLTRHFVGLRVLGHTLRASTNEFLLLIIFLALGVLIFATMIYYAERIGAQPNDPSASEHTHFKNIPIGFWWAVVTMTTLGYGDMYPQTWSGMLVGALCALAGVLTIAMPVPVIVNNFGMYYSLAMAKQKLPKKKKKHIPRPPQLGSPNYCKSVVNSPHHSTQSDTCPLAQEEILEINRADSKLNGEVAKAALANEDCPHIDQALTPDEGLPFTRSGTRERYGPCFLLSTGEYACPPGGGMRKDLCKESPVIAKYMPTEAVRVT

[4] = biological target: T3, GluR2, native protein in PSD preparations (rat, UniProt P19491 22-883, limits assumed); experiment: co-immunoprecipitation from PSD preparations with anti-GluR2, probed with anti-ND2
T3 construct: also called AMPA receptor complex
T3 sequence (P19491 22-883 limits assumed): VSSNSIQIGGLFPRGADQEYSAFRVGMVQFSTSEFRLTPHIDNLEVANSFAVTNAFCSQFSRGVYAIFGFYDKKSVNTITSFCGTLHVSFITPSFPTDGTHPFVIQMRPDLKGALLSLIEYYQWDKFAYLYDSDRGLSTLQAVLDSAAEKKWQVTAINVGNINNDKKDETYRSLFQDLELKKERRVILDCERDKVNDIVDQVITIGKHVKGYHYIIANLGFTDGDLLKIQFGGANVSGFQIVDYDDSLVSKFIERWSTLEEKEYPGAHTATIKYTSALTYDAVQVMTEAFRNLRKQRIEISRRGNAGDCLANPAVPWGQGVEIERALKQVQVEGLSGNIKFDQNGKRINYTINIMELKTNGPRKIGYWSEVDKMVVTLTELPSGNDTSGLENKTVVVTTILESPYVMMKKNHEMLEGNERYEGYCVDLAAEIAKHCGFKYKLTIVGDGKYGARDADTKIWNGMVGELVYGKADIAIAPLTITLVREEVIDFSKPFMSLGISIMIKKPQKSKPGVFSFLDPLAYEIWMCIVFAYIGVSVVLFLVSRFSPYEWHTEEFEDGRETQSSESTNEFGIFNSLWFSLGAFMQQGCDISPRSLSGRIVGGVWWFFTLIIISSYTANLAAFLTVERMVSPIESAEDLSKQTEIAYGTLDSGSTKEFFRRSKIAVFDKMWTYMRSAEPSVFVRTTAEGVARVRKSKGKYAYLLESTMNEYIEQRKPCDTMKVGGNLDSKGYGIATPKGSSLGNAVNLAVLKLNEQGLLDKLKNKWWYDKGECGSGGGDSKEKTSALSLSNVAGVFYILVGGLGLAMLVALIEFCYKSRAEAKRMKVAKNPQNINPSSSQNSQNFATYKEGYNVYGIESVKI

binding result [1]: no binding
binding result [2]: no binding
B1: ND2.2-GST fusion protein (amino acids 189-238 of human ND2) (other)
chain: WMMAVLPYNPNMTILNLTIYIILTTTAFLLLNLNSSTTTLLLSRTWNKLT
modifications: also: fused to GST tag of pGEX vector, sequence and linker not given here
notes: not shown: glutathione S-transferase (GST) tag of vector pGEX4T-1

binding result [2]: no binding
B2: ND2.3-GST fusion protein (amino acids 1-188 of human ND2) (other)
chain: MNPLAQPVIYSTIFAGTLITALSSHWFFTWVGLEMNMLAFIPVLTKKMNPRSTEAAIKYFLTQATASMILLMAILFNNMLSGQWTMTNTTNQYSSLMIMMAMAMKLGMAPFHFWVPEVTQGTPLTSGLLLLTWQKLAPISIMYQISPSLNVSLLLTLSILSIMAGSWGGLNQTQLRKILAYSSITHMG
notes: as for B1

binding result [3]: no binding
binding result [4]: no binding
B3: NADH dehydrogenase subunit 2 (ND2), native protein in brain lysates, PSD preparations, hippocampal neurons and tissues (other, UniProt P11662 1-346, looked up)
chain: MNPITLIIIYFTILMGPVITMSSSNLLLMWVGLEMSLLAIIPLLANKKSPRSTEAATKYFLTQATASMIILLVIILNYKQSGMWTLQQQTNNMLLNMMLISLAMKLGLAPFHYWLPEVTQGIPLHIGLILLTWQKIAPLSILYQFYQLLNPTITTILAISSVFVGAWGGLNQTQTRKIMAYSSIAHMGWMTAILPYNPNLTLLNLTIYILLTVPMFITLMTNSATTINTLSLAWNKTPMILTMTSIILLSLGGLPPLTGFLPKWAIISELLKNNCSTLSTLMAIMALLSLFFYTRLIYSMSLTMFPTNNNSKMISHHHQNPKHNFILPTLTVLSTLTLPLSSQLIT
